B1: E35D/D46E/M47V/V68M/L85Q (protein, UniProt P33681 35-288, looked up, variant E35D D46E M47V V68M L85Q)
T-lymphocyte activation …: VIHVTKEVKEVATLSCGHNVSVEELAQTRIYWQKDKKMVLTMMSGEVNIWPEYKNRTIFDITNNLSIMILALRPSDEGTYECVVQKYEKDAFKREHLAEVTLSVKADFPTPSISDFEIPTSNIRRIICSTSGGFPEPHLSWLENGEELNAINTTVSQDPETELYAVSSKLDFNMTTNHSFMCLIKYGHLRVNQTFNWNTTKQEHFPDNLLPSWAITLISVNGIFVICCLTYCFAPRCRERRRNERLRRESVRPV
B2: E35D/M47V/V68M/L85M/Y87D (protein, UniProt P33681 35-288, looked up, variant E35D M47V V68M L85M Y87D)
T-lymphocyte activation …: VIHVTKEVKEVATLSCGHNVSVEELAQTRIYWQKDKKMVLTMMSGDVNIWPEYKNRTIFDITNNLSIMILALRPSDEGTYECVVMKDEKDAFKREHLAEVTLSVKADFPTPSISDFEIPTSNIRRIICSTSGGFPEPHLSWLENGEELNAINTTVSQDPETELYAVSSKLDFNMTTNHSFMCLIKYGHLRVNQTFNWNTTKQEHFPDNLLPSWAITLISVNGIFVICCLTYCFAPRCRERRRNERLRRESVRPV
B3: E35D/D46V/M47L (protein)
chain: VIHVTKEVKEVATLSCGHNVSVEELAQTRIYWQKDKKMVLTMMSGVLNIWPEYKNRTIFDITNNLSIVILALRPSDEGTYECVVLKYEKDAFKREHLAEVTLSVKAD
B4: E35D/D46V/V68M (protein)
chain: VIHVTKEVKEVATLSCGHNVSVEELAQTRIYWQKDKKMVLTMMSGVMNIWPEYKNRTIFDITNNLSIMILALRPSDEGTYECVVLKYEKDAFKREHLAEVTLSVKAD
B5: D46V/V68M/L85Q (protein)
chain: VIHVTKEVKEVATLSCGHNVSVEELAQTRIYWQKEKKMVLTMMSGVMNIWPEYKNRTIFDITNNLSIMILALRPSDEGTYECVVQKYEKDAFKREHLAEVTLSVKAD
B6: E35D/D46V/M47L/V68M (protein)
chain: VIHVTKEVKEVATLSCGHNVSVEELAQTRIYWQKDKKMVLTMMSGVLNIWPEYKNRTIFDITNNLSIMILALRPSDEGTYECVVLKYEKDAFKREHLAEVTLSVKAD
B7: E35D/D46V/V68M/L85Q (protein)
chain: VIHVTKEVKEVATLSCGHNVSVEELAQTRIYWQKDKKMVLTMMSGVMNIWPEYKNRTIFDITNNLSIMILALRPSDEGTYECVVQKYEKDAFKREHLAEVTLSVKAD
B8: V68M/K89N (protein)
chain: VIHVTKEVKEVATLSCGHNVSVEELAQTRIYWQKEKKMVLTMMSGDMNIWPEYKNRTIFDITNNLSIMILALRPSDEGTYECVVLKYENDAFKREHLAEVTLSVKAD
B9: E35D/M47V/N48K (protein)
chain: VIHVTKEVKEVATLSCGHNVSVEELAQTRIYWQKDKKMVLTMMSGDVKIWPEYKNRTIFDITNNLSIVILALRPSDEGTYECVVLKYEKDAFKREHLAEVTLSVKAD
B10: E35D/V68M/K89N (protein)
chain: VIHVTKEVKEVATLSCGHNVSVEELAQTRIYWQKDKKMVLTMMSGDMNIWPEYKNRTIFDITNNLSIMILALRPSDEGTYECVVLKYENDAFKREHLAEVTLSVKAD
B11: E35D/M47V/N48K/V68M (protein)
chain: VIHVTKEVKEVATLSCGHNVSVEELAQTRIYWQKDKKMVLTMMSGDVKIWPEYKNRTIFDITNNLSIMILALRPSDEGTYECVVLKYEKDAFKREHLAEVTLSVKAD
B12: E35D/M47V/V68M/K89N (protein)
chain: VIHVTKEVKEVATLSCGHNVSVEELAQTRIYWQKDKKMVLTMMSGDVNIWPEYKNRTIFDITNNLSIMILALRPSDEGTYECVVLKYENDAFKREHLAEVTLSVKAD
B13: E35D/M47L/V68M/A71G (protein)
chain: VIHVTKEVKEVATLSCGHNVSVEELAQTRIYWQKDKKMVLTMMSGDLNIWPEYKNRTIFDITNNLSIMILGLRPSDEGTYECVVLKYEKDAFKREHLAEVTLSVKAD
B14: A26E/V68M/A71G/D90G (protein)
chain: VIHVTKEVKEVATLSCGHNVSVEELEQTRIYWQKEKKMVLTMMSGDMNIWPEYKNRTIFDITNNLSIMILGLRPSDEGTYECVVLKYEKGAFKREHLAEVTLSVKAD
B15: H18Y/M47L/A71G/D90G (protein)
chain: VIHVTKEVKEVATLSCGYNVSVEELAQTRIYWQKEKKMVLTMMSGDLNIWPEYKNRTIFDITNNLSIVILGLRPSDEGTYECVVLKYEKGAFKREHLAEVTLSVKAD
B16: H18V/A26P/E35D/M47V/V68L/A71G (protein, UniProt P33681 35-288, looked up, variant H18V A26P E35D M47V V68L A71G)
T-lymphocyte activation …: VIHVTKEVKEVATLSCGVNVSVEELPQTRIYWQKDKKMVLTMMSGDVNIWPEYKNRTIFDITNNLSILILGLRPSDEGTYECVVLKYEKDAFKREHLAEVTLSVKADFPTPSISDFEIPTSNIRRIICSTSGGFPEPHLSWLENGEELNAINTTVSQDPETELYAVSSKLDFNMTTNHSFMCLIKYGHLRVNQTFNWNTTKQEHFPDNLLPSWAITLISVNGIFVICCLTYCFAPRCRERRRNERLRRESVRPV

Assays:
huCTLA4 = huCTLA4 (Homo sapiens, UniProt P16410); assay: Flow binding to CHO cells stably expressing CTLA4; set-up: huCTLA4 and huPD-L1, full-length mammalian surface expression constructs were generated; expressed in transfected cells; host or cells: CHO cells, lentiviral transduction, sorted to >98% purity; settings: CHO cells stably expressing CTLA4
Sequence of huCTLA4 (P16410 36-223): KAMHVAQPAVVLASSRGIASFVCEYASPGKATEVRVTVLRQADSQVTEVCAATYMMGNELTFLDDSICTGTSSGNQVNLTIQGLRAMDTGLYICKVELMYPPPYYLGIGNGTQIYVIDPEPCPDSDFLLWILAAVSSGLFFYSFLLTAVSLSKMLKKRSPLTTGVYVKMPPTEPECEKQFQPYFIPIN
Protocol: (§1) Binding of selected immunomodulatory fusion proteins to cognate binding partners was assessed. […] Cells were sorted in a Bio-Rad S3 Cell Sorter (Bio-Rad Corp., USA) to >98% purity. Jurkat/IL2 reporter cells, which endogenously express CD28, were used to detect binding to CD28.
(§2) For staining and analysis by flow cytometry, 100,000 cells of appropriate transfected cells were plated in 96-well round bottom plates. Cells were spun down and resuspended in staining buffer (phosphate buffered saline (PBS), 1% bovine serum albumin (BSA), and 0.1% sodium azide) for 20 minutes to block non-specific binding. […] Primary staining was performed on ice for 45 minutes, before washing cells in staining buffer twice. Phycoerythrin (PE)-conjugated anti-human Fc (Jackson ImmunoResearch, USA) was diluted 1:150, added to cells and incubated another 30 minutes on ice. Cells were then washed twice with 150 μL/well stain buffer, fixed in 2% formaldehyde/PBS, and analyzed on Intellicyt flow cytometer (Intellicyt Corp., USA). PE Mean Fluorescence Intensity (MFI) was calculated for each cell type with FlowJo Version 10 software (FlowJo LLC, USA).
(§3) Binding assays were carried out to assess the specificity and affinity of multivalent proteins to cell-expressed CTLA-4, CD28, and PD-L1 counter structures.
(§4) The EC50 for binding also was determined.

CD28 = CD28 (Homo sapiens, UniProt P10747); assay: Jurkat/IL2 + CHO/OKT3 +/- PD-L1 reporter assay: PD-L1-dependent CD28 costimulation; format: cell-based; set-up: host or cells: Jurkat cells expressing an IL-2-luciferase reporter; settings: Jurkat/IL2 + CHO/OKT3/PD-L1; for Relative Luciferase Units (RLU), CD80 Cone 5.0 nM: Table E13
Protocol: Jurkat cells were then plated at 50 μL/well for a total of 100,000 cells per well.
To each well, 25 μL of test protein was added to the Jurkat cells. […] The Jurkat cells with test or control proteins were incubated for 15 minutes at room temperature. CHO-derived artificial antigen presenting cells (aAPC) displaying transduced cell surface anti-CD3 single chain Fv (OKT3) (i.e., no PD-L1), or OKT3 and PD-L1 (i.e., +PD-L1), were brought to 0.8×10^6 cells/mL, and 25 μL of cells were added to each well, bringing the final volume of each well to 100 μL. […] Jurkat cells and CHO cells were incubated for 5 hours at 37 degrees Celsius in a humidified 5% CO2 incubation chamber. Plates were then removed from the incubator and acclimated to room temperature for 15 minutes. 100 μL of a cell lysis and luciferase substrate solution (BioGlo luciferase reagent, Promega) were added to each well and the plates were incubated on an orbital shaker for 10 minutes. Luminescence was measured with a 1 second per well integration time using a BioTek Cytation luminometer, and a relative luminescence value (RLU) was determined for each test sample.

huPD-L1 = huPD-L1 (Homo sapiens, UniProt Q9NZQ7); assay: Flow binding to CHO cells stably expressing PD-L1; set-up: huCTLA4 and huPD-L1, full-length mammalian surface expression constructs were generated; expressed in transfected cells; host or cells: CHO cells, lentiviral transduction, sorted to >98% purity; settings: CHO cells stably expressing PD-L1
Sequence of huPD-L1 (Q9NZQ7 19-290): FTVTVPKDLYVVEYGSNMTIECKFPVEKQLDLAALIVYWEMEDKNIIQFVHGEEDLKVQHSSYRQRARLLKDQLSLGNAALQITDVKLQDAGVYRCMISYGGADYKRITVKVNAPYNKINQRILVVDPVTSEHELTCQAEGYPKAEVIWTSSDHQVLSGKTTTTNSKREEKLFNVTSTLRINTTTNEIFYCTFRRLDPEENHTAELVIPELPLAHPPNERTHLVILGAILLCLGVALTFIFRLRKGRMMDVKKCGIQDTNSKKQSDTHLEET
Protocol: as §1, §2, §3, §4

[1] = Table E23, CD80 IgV-Fc (inert) at 33.3 nM

| Molecule | CTLA4 MFI at 33.3 nM (huCTLA4; Table E19, 33.3 nM) | Relative Luciferase Units (RLU), CD80 Conc 5.0 nM (CD28; Table E21, CD80 Conc 5.0 nM) | PD-L1 MFI at 33.3 nM (huPD-L1; Table E19, 33.3 nM) | also measured |
| --- | --- | --- | --- | --- |
| B1 | – | – | – | CTLA4 MFI at 33.3 nM (huCTLA4; Table E11, 33.3 nM): 15533; Relative Luciferase Units (RLU), CD80 Cone 5.0 nM (CD28; 5.0 nM): 1006 RLU; PD-L1 MFI at 33.3 nM (huPD-L1; Table E11, 33.3 nM): 1723 |
| B2 | – | – | – | CTLA4 MFI at 33.3 nM (huCTLA4; Table E11, 33.3 nM): 13936; Relative Luciferase Units (RLU), CD80 Cone 5.0 nM (CD28; 5.0 nM): 1181 RLU; PD-L1 MFI at 33.3 nM (huPD-L1; Table E11, 33.3 nM): 1721 |
| B3 | 44977 | 746 RLU | 7988 | – |
| B4 | 31195 | 799 RLU | 26114 | – |
| B5 | 7567 | 267 RLU | – | – |
| B6 | 34319 | 681 RLU | – | – |
| B7 | 32176 | 864 RLU | – | – |
| B8 | 2330 | 100 RLU | – | – |
| B9 | 47430 | 561 RLU | 4852 | – |
| B10 | 24838 | 537 RLU | – | – |
| B11 | 32913 | 747 RLU | 23479 | – |
| B12 | 29493 | 779 RLU | 21827 | – |
| B13 | – | – | – | CTLA4 MFI at 33.3 nM (huCTLA4; Table E20, 33.3 nM): 24656; Relative Luciferase Units (RLU), CD80 Conc 5.0 nM (CD28; Table E22, CD80 Conc 5.0 nM): 745 RLU; PD-L1 MFI at 33.3 nM (huPD-L1; Table E20, 33.3 nM): 27872 |
| B14 | – | – | – | CTLA4 MFI at 33.3 nM (huCTLA4; Table E20, 33.3 nM): 8666; Relative Luciferase Units (RLU), CD80 Conc 5.0 nM (CD28; Table E22, CD80 Conc 5.0 nM): 590 RLU; PD-L1 MFI at 33.3 nM (huPD-L1; Table E20, 33.3 nM): 3195 |
| B15 | – | – | – | CTLA4 MFI at 33.3 nM (huCTLA4; Table E20, 33.3 nM): 18162; Relative Luciferase Units (RLU), CD80 Conc 5.0 nM (CD28; Table E22, CD80 Conc 5.0 nM): 675 RLU |
| B16 | – | – | – | CTLA4 MFI at 33.3 nM (huCTLA4; [1]): 13669; Relative Luciferase Units (RLU), CD80 Conc 5.0 nM (CD28; Table E24, 5.0 nM): 881 RLU; PD-L1 MFI at 33.3 nM (huPD-L1; [1]): 55417 |

From patent US20220177587A1, “METHODS AND USES OF VARIANT CD80 FUSION PROTEINS AND RELATED CONSTRUCTS” (Alpine Immune Sciences, Inc., priority 2018, published 2022)
